B1: 9H04 (hybridoma) (antibody, V domains shown)
VH: QVQLVESGGGLVKPGGSLRLSCAASRFTLSDYYMTWIRQAPGKGLEWVSYISSSGNTIYYADSVKGRFTISRDNAKNSLYLQMNSLRAEDTAVYYCARDLSGSYWDYYYGMDVWGQGTTVTVSS
VL: AIQLTQSPSSLSTSVGDRVTIACRASQGINNALAWYQQKPGKAPKLLIYDASSLESGVPSRFSGSGSGTDFTLTISSLQPEDFATYYCQQFNSYPRTFGQGTKVEIK
notes: also called 09H04
B2: 10A07 (human) (antibody, human IgG4 S228P, kappa, V domains shown)
VH: EVQLVESGGVLVQPGGSLRLSCAASGFTFSSYIMTWVRQAPGKGLEWVSGISGSGGGTYYADSMKGRFTISRDNSKNTLYLQMNSLRVEDTAVYYCAKDRLGPITLVRGGYYYGMDVWGQGTTVTVSS
VL: DIQMTQSPSSLSASVGDRVTITCRASQSISDYLNWYQQKPGKAPKFLIYAASSLQSGVPSRFSGSGSGTDFTLTVSSLQPEDFATYYCQQSYSTPRTFGQGTRVEIKR
notes: also called 10A7; 10A07 IgG4PE
B3: 10A07 (hybridoma) (antibody, V domains shown)
VH: B2 VH
VL: DIQMTQSPSSLSASVGDRVTITCRASQSISDYLNWYQQKPGKAPKFLIYAASSLQSGVPSRFSGSGSGTDFTLTVSSLQPEDFATYYCQQSYSTPRTFGQGTRVEIK
notes: Kappa light chain; also called 10A7; mAb 10A7
B4: 19H01 (hybridoma) (antibody, V domains shown)
VH: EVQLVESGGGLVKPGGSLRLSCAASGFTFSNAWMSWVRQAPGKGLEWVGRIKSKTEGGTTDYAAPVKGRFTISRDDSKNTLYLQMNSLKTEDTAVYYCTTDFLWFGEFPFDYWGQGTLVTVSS
VL: DIQMTQSPSSLSASVGDRVTITCRASQGISNYLAWYQQKPGKIPKLLIYAASTLQSGVPSRFSGSGSGTDFTLTISSLQPEDVATYYCQKYNSAPRTFGQGTKVEIK
B5: 2D10 (human) (antibody, human IgG4 S228P, kappa, V domains shown)
VH: EVQLVESGGGLVQPGGSLRLSCAASGFTFSNYAMNWVRQAPGKGLEWVSTISGSGGATRYADSVKGRFTISRDNSRNTVYLQMNSLRVEDTAVFYCTKDRLIMATVRGPYYYGMDVWGQGTTVTVSS
VL: DIQMTQSPSSLSASVGDRVTITCRASQSISSYLNWYQQKPGKAPNLLIYAASSLQSGVPSRFSGSGSETDFTLTISSLQPEDFATYYCQQSHSVSFTFGPGTKVDIKR
notes: also called 02D10; 02D10 IgG4-PE
B6: 2D10 (hybridoma) (antibody, V domains shown)
VH: B5 VH
VL: DIQMTQSPSSLSASVGDRVTITCRASQSISSYLNWYQQKPGKAPNLLIYAASSLQSGVPSRFSGSGSETDFTLTISSLQPEDFATYYCQQSHSVSFTFGPGTKVDIK
notes: Kappa light chain; also called 02D10

How the values were obtained:
[1] = target: T1, Recombinant Human OX40L (Leader sequence, Isoleucine Zipper and FLAG Sequence Included) (human); experiment: SPR (ProteOn XPR36), antibody captured on anti-mouse IgG, hOX40L at a single concentration of 256 nM, 1:1 model, apparent affinity, 25 C
T1 construct: also called hOX40L; recombinant hOX40L
T1 sequence (chain, as listed by the source limits assumed): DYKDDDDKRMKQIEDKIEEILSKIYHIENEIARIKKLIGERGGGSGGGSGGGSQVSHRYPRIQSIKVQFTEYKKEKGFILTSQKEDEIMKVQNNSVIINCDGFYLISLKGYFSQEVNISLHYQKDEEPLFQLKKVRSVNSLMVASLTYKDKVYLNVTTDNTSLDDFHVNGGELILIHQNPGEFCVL
Experimental: (§1) SPR analysis was carried out using the ProteOn™ XPR36 Array System (BioRad). Anti-mouse IgG (GE Healthcare BR-1008-38) was immobilised on a GLM biosensor surface using amine coupling, the surface was then blocked using 1 M ethanolamine. Test antibodies were captured on this surface and recombinant hOX40L (human and rhesus) were used at a single concentration of 256 nM, binding sensorgrams were double referenced using a buffer injection (i.e. 0 nM) to remove baseline drift and injection artefacts. Apparent affinities for the OX40L-antibody interaction were determined using the 1:1 model inherent to the ProteOn XPR36 analysis software. The assay was run using HBS-EP (Teknova) as running buffer and carried out at 25° C.

[2] = target: T2, Recombinant Rhesus OX40L (Leader Sequence, FLAG and Isoleucine zipper included) (Rhesus (Macaca mulatta)); experiment: SPR (ProteOn XPR36), rhesus OX40L at 256 nM, apparent affinity; CNROR = Cannot resolve off-rate
T2 construct: also called RhsOX40L; Rhesus monkey OX40L
T2 sequence (chain, as listed by the source limits assumed): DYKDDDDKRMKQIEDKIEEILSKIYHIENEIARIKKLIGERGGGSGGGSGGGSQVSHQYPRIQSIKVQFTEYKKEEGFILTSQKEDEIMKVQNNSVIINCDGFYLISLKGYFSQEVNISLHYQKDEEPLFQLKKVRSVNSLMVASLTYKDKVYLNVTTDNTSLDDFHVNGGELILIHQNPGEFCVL

[3] = target: T1, Recombinant Human OX40L (Leader …); experiment: HTRF ligand/receptor neutralisation, biotinylated hOX40L, competitor OX40RFc-AF647; mean of three experiments, SEM +/-0.17
Experimental: (§2) In order to determine whether recombinantly expressed fully human purified IgG inhibit human OX40L binding to OX40RFc the following method was carried out. Fully human purified IgG or other inhibitor were tested in order to establish the clone potency as measured by IC₅₀ values in the assay. Antibodies recombinantly expressed and purified were titrated by diluting in HTRF assay buffer and 5 μL of this titration transferred to a white 384 well low volume non-binding surface polystyrene plate (Greiner). Biotinylated OX40L was diluted in HTRF assay buffer to a working concentration of 2.4 nM and 5 μL added. OX40RFc directly labelled with AF647 was then diluted to working concentration of 10 nM and 5 μL added. Non-specific binding was defined by replacing OX40RFc-AF647 with assay buffer or HMM. […] Plates were covered, protected from light and incubated at room temperature for 3 hrs prior to reading time resolved fluorescence at 620 nm and 665 nm emission wavelengths using an EnVision plate reader (Perkin Elmer). Data were analysed by calculating delta F as described in Equation 4 and percentage of receptor for each sample according to Equation 5 or in some cases Equation 6. IC₅₀ values were determined using GraphPad Prism software by curve fitting using a four-parameter logistic equation (Equation 7) (FIG. 1).

[4] = target: T1, Recombinant Human OX40L (Leader …); experiment: HTRF ligand/receptor neutralisation: biotinylated hOX40L with OX40RFc-AF647, antibody titrated; readout is % of receptor binding
Experimental: as §2

[5] = target: T2, Recombinant Rhesus OX40L (Leader …); experiment: SPR (ProteOn XPR36), antibody captured, rhesus OX40L at 256 nM, apparent affinity; CNROR = Cannot resolve off-rate
Experimental: as §1

[6] = target: T1, Recombinant Human OX40L (Leader …); experiment: HTRF ligand/receptor neutralisation, biotinylated hOX40L, competitor OX40RFc-AF647; mean of three experiments, SEM +/-0.04
Experimental: as §2

Binder	Kd [1]	binding result [2]	IC50 (read off the curve) [4]	binding result [5]	also measured
B1	5.3 nM	–	–	–	–
B2	–	binds	~1 nM	–	IC50 [3]: 1.2 nM
B3	–	–	–	binds	–
B4	2.2 nM	–	–	–	–
B5	–	binds	~0.8 nM	–	IC50 [6]: 0.75 nM
B6	–	–	–	binds	–

— US20170002083A1 (KYMAB, published 2017)
